The results in this text go back to patent US20210002376A1.

The target of experiment [1] is HER3-Fc fusion protein (UniProt P21860). Kind of experiment: ELISA, coated HER3-Fc, anti-human Fab-HRP.
A further experiment concerns the target HER3-His (UniProt P21860). Kind of experiment: ELISA, coated His-tagged HER3 ECD, anti-human Fc-HRP.
Experiment [2] has as its target HER3-Fc fusion protein (UniProt P21860). Kind of experiment: ELISA, coated HER3-Fc, anti-human Fab-HRP. The source holds these as a separate data set.

Read-outs that look alike come from different tables or passages of the source.

B1: 3-43-IgG (antibody, from a related filing, V domains shown)
VH: QVQLQQSGPGLVKPSQTLSLTCAISGDSVSSNRAAWNWIRQSPSRGLEWLGRTYYRSKWYNDYAQSLKSRITINPDTPKNQFSLQLNSVTPEDTAVYYCARDGQLGLDALDIWGQGTMVTVSS
VL: QAGLTQPPAVSVAPGQTASITCGRDNIGSRSVHWYQQKPGQAPVLVVYDDSDRPAGIPERFSGSNYENTATLTISRVEAGDEADYYCQVWGITSDHVVFGGGTKLTVLC
As to B1, the EC50 with HER3-Fc fusion protein [1] came to 0.2 nM; in the experiment with HER3-His, 0.23 nM; in the experiment with HER3-Fc fusion protein [2], 0.21 nM.
